Laboratory results published in patent US20070231333A1, “ANTI-5T4 ANTIBODIES AND USES THEREOF” (Wyeth, priority 2006, published 2007).

Key:
[1] = molecular target: T1, human 5T4 antigen (Homo sapiens, UniProt Q13641); assay: BIACORE analysis of antibody binding to human 5T4 antigen immobilized on a CM5 chip; settings: chimeric and humanized antibodies, Table 12
T1 sequence (Q13641 32-420): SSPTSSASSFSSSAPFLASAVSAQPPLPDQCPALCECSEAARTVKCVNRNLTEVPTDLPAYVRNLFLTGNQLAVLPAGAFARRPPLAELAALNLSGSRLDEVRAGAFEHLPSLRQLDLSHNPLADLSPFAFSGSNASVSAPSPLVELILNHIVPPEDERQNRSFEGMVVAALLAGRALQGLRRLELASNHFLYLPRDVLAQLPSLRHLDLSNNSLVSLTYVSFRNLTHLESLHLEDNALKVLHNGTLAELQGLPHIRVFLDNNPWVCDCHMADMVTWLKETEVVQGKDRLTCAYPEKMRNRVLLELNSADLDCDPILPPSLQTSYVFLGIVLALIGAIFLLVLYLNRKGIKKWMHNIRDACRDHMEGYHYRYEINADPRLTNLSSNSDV
Method: To assess the binding specificity and affinity of the A1, A2, and A3 antibodies, BIACORE® analysis was performed using human 5T4 antigen immobilized on a CM5 chip. BIACORE® technology utilizes changes in the refractive index at the surface layer upon binding of the antibody to the 5T4 antigen immobilized on the layer. Binding is detected by surface plasmon resonance (SPR) of laser light refracting from the surface. Analysis of the signal kinetics on rate and off rate allows discrimination between non-specific and specific interactions. The H8 anti-5T4 antibody was used as a control. H8 is a hybridoma-generated monoclonal mouse IgG1 antibody described in PCT International Publication No. WO 98/55607 and in Forsberg et al. (1997) J. Biol. Chem. 272(19):[…].
To assess the binding specificity and affinity of the chimeric and humanized H8, A1, A2, and A3 antibodies, BIACORE® analysis was performed using human 5T4 antigen immobilized on a CM5 chip. See Example 2.

[2] = molecular target: T2, mouse 5T4 ectodomain/Fc fusion protein (Mus musculus, UniProt Q9Z0L0); assay: Cross-species reactivity ELISA, 5T4 ectodomain/Fc fusion proteins; assay type: binding; parameters: key: +: binding; −: no binding; +/−: partial binding
T2 construct: prepared using mouse 5T4 (amino acids 1-361); human IgG1 Fc; made in house; host or cells: COS-1 cells (transient transfection)
T2 sequence (Q9Z0L0 32-361): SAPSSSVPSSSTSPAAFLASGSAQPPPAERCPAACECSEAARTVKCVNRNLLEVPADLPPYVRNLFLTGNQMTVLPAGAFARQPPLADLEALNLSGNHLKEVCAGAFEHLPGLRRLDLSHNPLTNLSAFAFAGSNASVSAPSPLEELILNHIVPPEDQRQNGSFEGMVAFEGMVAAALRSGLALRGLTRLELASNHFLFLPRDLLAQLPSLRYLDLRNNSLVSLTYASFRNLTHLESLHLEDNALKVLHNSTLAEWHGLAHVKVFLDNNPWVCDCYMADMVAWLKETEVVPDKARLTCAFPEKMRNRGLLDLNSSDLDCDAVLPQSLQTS
Method: (§1) The cross-species reactivity of anti-5T4 antibodies disclosed herein was assayed to determine relevant species for in vivo efficacy studies and toxicology analysis. Correlation of binding activity and relatedness of the different 5T4 ectodomains was also used to further describe the epitope bound by each antibody. Binding assays were performed using 5T4 ectodomains from various species fused to human IgG1 Fc. To assay binding of anti-5T4 antibodies, 5T4 ectodomain/Fc fusion proteins were transiently transfected into COS-1 cells, and ELISA assays were performed. Non-relevant human IgG4 and IgG1 antibodies were used as controls.

[3] = molecular target: T3, rat 5T4 ectodomain/Fc fusion protein (Rattus norvegicus, UniProt Q5PQV5); assay: as above; assay type: binding; parameters: key: +: binding; −: no binding; +/−: partial binding
T3 construct: rat 5T4 (amino acids 1-361); human IgG1 Fc; made in house; host or cells: COS-1 cells (transient transfection)
T3 sequence (Q5PQV5 32-361): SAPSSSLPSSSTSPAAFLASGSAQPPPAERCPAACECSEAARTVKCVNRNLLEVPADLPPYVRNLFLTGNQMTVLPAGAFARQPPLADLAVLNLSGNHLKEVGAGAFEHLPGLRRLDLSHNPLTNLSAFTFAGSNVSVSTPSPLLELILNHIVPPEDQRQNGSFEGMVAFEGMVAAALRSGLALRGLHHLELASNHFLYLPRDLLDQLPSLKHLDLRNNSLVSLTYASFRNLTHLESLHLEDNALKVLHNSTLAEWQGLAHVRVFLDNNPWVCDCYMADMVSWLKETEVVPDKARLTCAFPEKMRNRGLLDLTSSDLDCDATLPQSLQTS
Method: as §1

[4] = molecular target: T1, human 5T4 antigen; assay: BIACORE competition assay: second antibody after saturation with first antibody; assay type: binding
Method: Epitope mapping of the H8, A1, A2, and A3 antibodies was also performed using BIACORE® using a CM5 chip with bound human 5T4 antigen. The chip was saturated with H8, A1, A2, or A3 antibody, and a first response was measured. The chip was then saturated with a second antibody from among the H8, A1, A2, and A3 antibodies, and a second response was measured. For multiple experiments, the chip was regenerated by dissociation of the bound antibodies in 10 mM glycine, pH 1.5, followed by a buffer wash. The percentages shown are the response units measured upon binding by a second antibody directly to the CM5 chip divided by the response units measured upon binding of the second antibody to a CM5 chip saturated with a first antibody.
The epitopes bound by the H8 and A3 antibodies are sterically close to each other such that the rate of association with antigen is decreased when binding of H8 is assayed in the presence of A3, and vice versa. Similar results were obtained using the chimeric and humanized H8, A1, A2, and A3 antibodies, which were prepared as described in Example 7 herein below.

[5] = first antibody chimeric A3, 19 seconds after injection of second antibody
[6] = first antibody chimeric A3, 37.5 seconds after injection of second antibody
[7] = first antibody chimeric A3, 75 seconds after injection of second antibody
[8] = first antibody chimeric A3, 150 seconds after injection of second antibody
[9] = first antibody chimeric A3, 300 seconds after injection of second antibody
[10] = first antibody chimeric A3, 600 seconds after injection of second antibody

B1: Chimeric A3 + C91Y: chimeric A3 antibody bearing C91Y mutation in the heavy chain variable region (antibody, V domains shown)
VH: EVQLVESGGGLVQPKGSLKLSCAASGFTFNTYAMNWVRQAPGKGLEWVARIRSKSNNYATYYADSVKDRFTISRDDSQSMLYLQMNNLKTEDTAMYYCVRQWDYDVRAMNYWGQGTSVTVSS
VL: DIVMTQSHIFMSTSVGDRVSITCKASQDVDTAVAWYQQKPGQSPKLLIYWASTRLTGVPDRFTGSGSGTDFTLTISNVQSEDLADYFCQQYSSYPYTFGGGTKLEIK
[1]
  KA: 1.7e+09 M⁻¹
  Kd: 5.9 nM
  ka: 27000 M⁻¹ s⁻¹
  kd: 1.6e-05 s⁻¹

B2: chimeric A1: chimeric A1 antibody: murine A1 variable regions, human IgG4 heavy chain and human kappa light chain constant regions (antibody, V domains shown)
VH: QIQLVQSGPELKKPGETVKISCKASGYTFTNFGMNWVKQGPGEGLKWMGWINTNTGEPRYAEEFKGRCAFSLETTASTAYLQINNLKNEDTATYFCARDWDGAYFFDYWGQGTTLTVSS
VL: SIVMTQTPKFLLVSAGDRVTITCKASQSVSNDVAWYQQKPGQSPKLLINFATNRYTGVPNRFTGSGYGTDFTFTISTVQAEDLALYFCQQDYSSPWTFGGGTKLEIK
[2]
  cross-reactivity (binding class): −
[3]
  cross-reactivity (binding class): +/−
[4]; first antibody chimeric A2, 19 seconds after injection of second antibody
  Percentage of Second Antibody Bound Following Saturation With First Antibody: 92.5%
[4]; first antibody chimeric A2, 37.5 seconds after injection of second antibody
  Percentage of Second Antibody Bound Following Saturation With First Antibody: 90.6%
[4]; first antibody chimeric A2, 75 seconds after injection of second antibody
  Percentage of Second Antibody Bound Following Saturation With First Antibody: 91.4%
[4]; first antibody chimeric A2, 300 seconds after injection of second antibody
  Percentage of Second Antibody Bound Following Saturation With First Antibody: 93.9%
[4]; first antibody chimeric A2, 600 seconds after injection of second antibody
  Percentage of Second Antibody Bound Following Saturation With First Antibody: 95.5%
[4]; [5]
  Percentage of Second Antibody Bound Following Saturation With First Antibody: 98.8%
[4]; [6]
  Percentage of Second Antibody Bound Following Saturation With First Antibody: 96.5%
[4]; [7]
  Percentage of Second Antibody Bound Following Saturation With First Antibody: 97.0%
[4]; [8]
  Percentage of Second Antibody Bound Following Saturation With First Antibody: 98.0%
[4]; [9]
  Percentage of Second Antibody Bound Following Saturation With First Antibody: 98.8%
[4]; [10]
  Percentage of Second Antibody Bound Following Saturation With First Antibody: 99.6%
[1]
  KA: 2.3e+09 M⁻¹
  ka: 150000 M⁻¹ s⁻¹
  kd: 6.7e-05 s⁻¹

B3: Chimeric A1 + C67F: chimeric A1 antibody bearing C67F mutation in the heavy chain variable region (antibody, V domains shown)
VH: QIQLVQSGPELKKPGETVKISCKASGYTFTNFGMNWVKQGPGEGLKWMGWINTNTGEPRYAEEFKGRFAFSLETTASTAYLQINNLKNEDTATYFCARDWDGAYFFDYWGQGTTLTVSS
VL: SIVMTQTPKFLLVSAGDRVTITCKASQSVSNDVAWYQQKPGQSPKLLINFATNRYTGVPNRFTGSGYGTDFTFTISTVQAEDLALYFCQQDYSSPWTFGGGTKLEIK
[1]
  KA: 2.6e+09 M⁻¹
  ka: 170000 M⁻¹ s⁻¹
  kd: 6.3e-05 s⁻¹

B4: chimeric A2: chimeric A2 antibody: murine A2 variable regions, human IgG4 heavy chain and human kappa light chain constant regions (antibody, V domains shown)
VH: QVQLQQSRPELVKPGASVKMSCKASGYTFTDYVISWVKQRTGQGLEWIGEIYPGSNSIYYNEKFKGRATLTADKSSSTAYMQLSSLTSEDSAVYFCAMGGNYGFDYWGQGTTLTVSS
VL: QIVLTQSPAIMSASLGERVTLTCTASSSVNSNYLHWYQQKPGSSPKLWIYSTSNLASGVPARFSGSGSGTSYSLTISSMEAEDAATYYCHQYHRSPLTFGAGTKLELK
[2]
  cross-reactivity (binding class): −
[3]
  cross-reactivity (binding class): −
[4]; first antibody chimeric A1, 19 seconds after injection of second antibody
  Percentage of Second Antibody Bound Following Saturation With First Antibody: 102.9%
[4]; first antibody chimeric A1, 37.5 seconds after injection of second antibody
  Percentage of Second Antibody Bound Following Saturation With First Antibody: 93.5%
[4]; first antibody chimeric A1, 75 seconds after injection of second antibody
  Percentage of Second Antibody Bound Following Saturation With First Antibody: 90.1%
[4]; first antibody chimeric A1, 150 seconds after injection of second antibody
  Percentage of Second Antibody Bound Following Saturation With First Antibody: 89.0%
[4]; first antibody chimeric A1, 300 seconds after injection of second antibody
  Percentage of Second Antibody Bound Following Saturation With First Antibody: 88.9%
[4]; first antibody chimeric A1, 600 seconds after injection of second antibody
  Percentage of Second Antibody Bound Following Saturation With First Antibody: 89.1%
[4]; [5]
  Percentage of Second Antibody Bound Following Saturation With First Antibody: 89.2%
[4]; [6]
  Percentage of Second Antibody Bound Following Saturation With First Antibody: 88.4%
[4]; [7]
  Percentage of Second Antibody Bound Following Saturation With First Antibody: 89.8%
[4]; [8]
  Percentage of Second Antibody Bound Following Saturation With First Antibody: 91.5%
[4]; [9]
  Percentage of Second Antibody Bound Following Saturation With First Antibody: 92.9%
[4]; [10]
  Percentage of Second Antibody Bound Following Saturation With First Antibody: 94.3%
[1]
  KA: 5.7e+08 M⁻¹
  ka: 140000 M⁻¹ s⁻¹
  kd: 0.00025 s⁻¹
